Source: patent publication US20110263454A1, “Methods of Identifying Functional Characteristics of Promoters, Transcription Modifying Proteins and Transcription Modulating Agents” (Salk Institute for Biological Studies, priority 2008, published 2011)

Key:
mGhrelin promoter = assay: NHR-promoter luciferase screen, mGhrelin promoter; format: cell-based, mouse; details: for Luc. act., normalized to lacZ / Normalized Luc. act., normalized to control: Table 8, mGhrelin; for Results of assays of transcription factor (+/- ligand) with mGhrelin: Table 6d, luciferase activity relative to control (control = 1.00)
Experimental: (§1) The use, feasibility, and reproducibility of the functional NHR-promoter screen in a 48-well format have been tested validated. Briefly, there were co-expressed 50 ng of each NHR/NHR homodimer or NHR/RXR heterodimer with 100 ng promoter/luciferase construct and 50 ng of LacZ (as a control for transfection efficiency) in CV-1 cells using Fugene HD (Roche) as a transfection reagent (alternatively or additionally, a CMV-YFP construct can be used as a transfection control). Each of the nuclear hormone receptors that were used in these experiments was cloned into a pcDNA3.1 vector and comprised a C-terminally linked V5H6 tag. Twenty-four hours after transfection, appropriate ligands were added, where applicable, (see Table 5 for various ligands and concentrations and after 48 hrs, samples were assayed for luciferase and LacZ activity. To measure for luciferase activity 15 ul of sample was added to 30 ul of luciferase buffer (20 mM tricine, 1.07 mM MgCarbonate, 2.67 mM MgSulfate, 0.1 mM Naz-EDTA, 5 mM DTT, 5 mM ATP, 0.15 mg/ml CoA, 0.5 mM Luciferin), mixed briefly, and run in a Perkin Elmer Victor 5 luminometer. Thus, the functional NHR-promoter screen was used to observe the transcriptional activity of 29 promoters from various physiological pathways including inflammation, lipid and sugar metabolism, cholesterol transport, xenobiotic metabolism, and circadian rhythm.
(§2) The promoters that facilitate transcription of the indicated gene products that were tested using the protocols described herein are listed in the first row of the table. The nuclear hormone receptors and, where applicable, ligands that were assayed for their transcriptional effects on the promoters are listed in the first column of the table. The data represent the luciferase activity of each sample normalized to both the lacZ activity of that sample and to a control, e.g., no NHR or ligand, as customary in the art. As described previously, these normalizations allow the transcriptional activity of each reporter cell to be compared to other samples.
(§3) Tables 7-40 show the transcriptional effects of the hormone receptors, and, where applicable, ligands (orphan receptors are screened without ligand), on each individual promoter. […] The control data of each table are shown in their last rows.

mLeptin promoter = assay: NHR-promoter luciferase screen, mLeptin promoter; format: cell-based, mouse; details: for Luc. act., normalized to lacZ / Normalized Luc. act., normalized to control: Table 7, mLeptin; for Results of assays of transcription factor (+/- ligand) with mLeptin: Table 6d, luciferase activity relative to control (control = 1.00)
Experimental: as §1, §2, §3

mPOMC promoter = assay: NHR-promoter luciferase screen, mPOMC promoter; format: cell-based, mouse; details: for Results of assays of transcription factor (+/- ligand) with mPOMC: Table 6d, luciferase activity relative to control (control = 1.00); for Luc. act., normalized to lacZ / Normalized Luc. act., normalized to control: mPOMC promoter, HR component with or without ligand; for Normalized Luc. act., normalized to control: relative to control
Experimental: as §1, §2, §3

mUCP3 promoter = assay: NHR-promoter luciferase screen, mUCP3 promoter; format: cell-based, mouse; details: for Normalized Luc. act., normalized to control / Luc. act., normalized to lacZ: mUCP3 promoter reporter; for Normalized Luc. act., normalized to control: HR without or with its ligand, relative to control; for Luc. act., normalized to lacZ: hormone receptor (HR) without or with its ligand; for mUCP3 promoter reporter activity: transcription factor +/- ligand, control = 1.00
Experimental: as §1, §2, §3

hIRF7 promoter = assay: NHR-promoter luciferase screen, hIRF7 promoter; format: cell-based, human; details: for Normalized Luc. act., normalized to control / Luc. act., normalized to lacZ: IRF7 promoter reporter; for Normalized Luc. act., normalized to control: HR without or with its ligand, relative to control; for Luc. act., normalized to lacZ: hormone receptor (HR) without or with its ligand; for hIRF7 promoter reporter activity: transcription factor +/- ligand, control = 1.00
Experimental: as §1, §2, §3

hPPARg1 promoter = assay: NHR-promoter luciferase screen, hPPARg1 promoter; format: cell-based, human; details: for Luc. act., normalized to lacZ / Normalized Luc. act., normalized to control: PPARG1 promoter, hormone receptor with or without its ligand; for Normalized Luc. act., normalized to control: relative to control; for Results of assays of transcription factor (+/- ligand) with hPPARg1: Table 6d, luciferase activity relative to control (control = 1.00)
Experimental: as §1, §2, §3

B1: RORg: RAR-related Orphan Receptor γ (NR1F3), cDNA driver (protein, UniProt P51449 1-518, looked up)
Nuclear receptor ROR-gamma: MDRAPQRQHRASRELLAAKKTHTSQIEVIPCKICGDKSSGIHYGVITCEGCKGFFRRSQRCNAAYSCTRQQNCPIDRTSRNRCQHCRLQKCLALGMSRDAVKFGRMSKKQRDSLHAEVQKQLQQRQQQQQEPVVKTPPAGAQGADTLTYTLGLPDGQLPLGSSPDLPEASACPPGLLKASGSGPSYSNNLAKAGLNGASCHLEYSPERGKAEGRESFYSTGSQLTPDRCGLRFEEHRHPGLGELGQGPDSYGSPSFRSTPEAPYASLTEIEHLVQSVCKSYRETCQLRLEDLLRQRSNIFSREEVTGYQRKSMWEMWERCAHHLTEAIQYVVEFAKRLSGFMELCQNDQIVLLKAGAMEVVLVRMCRAYNADNRTVFFEGKYGGMELFRALGCSELISSIFDFSHSLSALHFSEDEIALYTALVLINAHRPGLQEKRKVEQLQYNLELAFHHHLCKTHRQSILAKLPPKGKLRSLCSQHVERLQIFQHLHPIVVQAAFPPLYKELFSTETESPVGLSK
Luc. act., normalized to lacZ (mGhrelin promoter): 109.2
Normalized Luc. act., normalized to control (mGhrelin promoter): 2.1
Results of assays of transcription factor (+/- ligand) with mGhrelin (mGhrelin promoter): 2.09
Luc. act., normalized to lacZ (mLeptin promoter): 2.6
Normalized Luc. act., normalized to control (mLeptin promoter): 0.9
Results of assays of transcription factor (+/- ligand) with mLeptin (mLeptin promoter): 0.87
Results of assays of transcription factor (+/- ligand) with mPOMC (mPOMC promoter): 1.30
Luc. act., normalized to lacZ (mPOMC promoter): 89.5
Normalized Luc. act., normalized to control (mPOMC promoter): 1.3
Normalized Luc. act., normalized to control (mUCP3 promoter): 2.4
Luc. act., normalized to lacZ (mUCP3 promoter): 1.6
mUCP3 promoter reporter activity (mUCP3 promoter): 2.38
Normalized Luc. act., normalized to control (hIRF7 promoter): 1.7
Luc. act., normalized to lacZ (hIRF7 promoter): 44.4
hIRF7 promoter reporter activity (hIRF7 promoter): 1.69
Luc. act., normalized to lacZ (hPPARg1 promoter): 81.5
Normalized Luc. act., normalized to control (hPPARg1 promoter): 1.2
Results of assays of transcription factor (+/- ligand) with hPPARg1 (hPPARg1 promoter): 1.18

B2: RORa: RAR-related Orphan Receptor α (NR1F1), cDNA driver (protein, UniProt P35398 1-523, looked up)
Nuclear receptor ROR-alpha: MESAPAAPDPAASEPGSSGADAAAGSRETPLNQESARKSEPPAPVRRQSYSSTSRGISVTKKTHTSQIEIIPCKICGDKSSGIHYGVITCEGCKGFFRRSQQSNATYSCPRQKNCLIDRTSRNRCQHCRLQKCLAVGMSRDAVKFGRMSKKQRDSLYAEVQKHRMQQQQRDHQQQPGEAEPLTPTYNISANGLTELHDDLSNYIDGHTPEGSKADSAVSSFYLDIQPSPDQSGLDINGIKPEPICDYTPASGFFPYCSFTNGETSPTVSMAELEHLAQNISKSHLETCQYLREELQQITWQTFLQEEIENYQNKQREVMWQLCAIKITEAIQYVVEFAKRIDGFMELCQNDQIVLLKAGSLEVVFIRMCRAFDSQNNTVYFDGKYASPDVFKSLGCEDFISFVFEFGKSLCSMHLTEDEIALFSAFVLMSADRSWLQEKVKIEKLQQKIQLALQHVLQKNHREDGILTKLICKVSTLRALCGRHTEKLMAFKAIYPDIVRLHFPPLYKELFTSEFEPAMQIDG
Luc. act., normalized to lacZ (mGhrelin promoter): 46.6
Normalized Luc. act., normalized to control (mGhrelin promoter): 0.9
Results of assays of transcription factor (+/- ligand) with mGhrelin (mGhrelin promoter): 0.89
Luc. act., normalized to lacZ (mLeptin promoter): 2.1
Normalized Luc. act., normalized to control (mLeptin promoter): 0.7
Results of assays of transcription factor (+/- ligand) with mLeptin (mLeptin promoter): 0.71
Results of assays of transcription factor (+/- ligand) with mPOMC (mPOMC promoter): 2.08
Luc. act., normalized to lacZ (mPOMC promoter): 143.4
Normalized Luc. act., normalized to control (mPOMC promoter): 2.1
Normalized Luc. act., normalized to control (mUCP3 promoter): 2.6
Luc. act., normalized to lacZ (mUCP3 promoter): 1.7
mUCP3 promoter reporter activity (mUCP3 promoter): 2.56
Normalized Luc. act., normalized to control (hIRF7 promoter): 1.5
Luc. act., normalized to lacZ (hIRF7 promoter): 39.9
hIRF7 promoter reporter activity (hIRF7 promoter): 1.51
Luc. act., normalized to lacZ (hPPARg1 promoter): 74.0
Normalized Luc. act., normalized to control (hPPARg1 promoter): 1.1
Results of assays of transcription factor (+/- ligand) with hPPARg1 (hPPARg1 promoter): 1.07

B3: RVRb: Rev-Erb β (NR1D2, alternative name RVR), cDNA driver (protein, UniProt Q14995 1-579, looked up)
Nuclear receptor subfamily 1 …: MEVNAGGVIAYISSSSSASSPASCHSEGSENSFQSSSSSVPSSPNSSNSDTNGNPKNGDLANIEGILKNDRIDCSMKTSKSSAPGMTKSHSGVTKFSGMVLLCKVCGDVASGFHYGVHACEGCKGFFRRSIQQNIQYKKCLKNENCSIMRMNRNRCQQCRFKKCLSVGMSRDAVRFGRIPKREKQRMLIEMQSAMKTMMNSQFSGHLQNDTLVEHHEQTALPAQEQLRPKPQLEQENIKSSSPPSSDFAKEEVIGMVTRAHKDTFMYNQEQQENSAESMQPQRGERIPKNMEQYNLNHDHCGNGLSSHFPCSESQQHLNGQFKGRNIMHYPNGHAICIANGHCMNFSNAYTQRVCDRVPIDGFSQNENKNSYLCNTGGRMHLVCPMSKSPYVDPHKSGHEIWEEFSMSFTPAVKEVVEFAKRIPGFRDLSQHDQVNLLKAGTFEVLMVRFASLFDAKERTVTFLSGKKYSVDDLHSMGAGDLLNSMFEFSEKLNALQLSDEEMSLFTAVVLVSADRSGIENVNSVEALQETLIRALRTLIMKNHPNEASIFTKLLLKLPDLRSLNNMHSEELLAFKVHP
Luc. act., normalized to lacZ (mGhrelin promoter): 126.8
Normalized Luc. act., normalized to control (mGhrelin promoter): 2.4
Results of assays of transcription factor (+/- ligand) with mGhrelin (mGhrelin promoter): 2.43
Luc. act., normalized to lacZ (mLeptin promoter): 4.4
Normalized Luc. act., normalized to control (mLeptin promoter): 1.5
Results of assays of transcription factor (+/- ligand) with mLeptin (mLeptin promoter): 1.50
Results of assays of transcription factor (+/- ligand) with mPOMC (mPOMC promoter): 0.85
Luc. act., normalized to lacZ (mPOMC promoter): 58.4
Normalized Luc. act., normalized to control (mPOMC promoter): 0.8
Normalized Luc. act., normalized to control (mUCP3 promoter): 1.9
Luc. act., normalized to lacZ (mUCP3 promoter): 1.3
mUCP3 promoter reporter activity (mUCP3 promoter): 1.91
Normalized Luc. act., normalized to control (hIRF7 promoter): 1.9
Luc. act., normalized to lacZ (hIRF7 promoter): 50.4
hIRF7 promoter reporter activity (hIRF7 promoter): 1.91
Luc. act., normalized to lacZ (hPPARg1 promoter): 55.5
Normalized Luc. act., normalized to control (hPPARg1 promoter): 0.8
Results of assays of transcription factor (+/- ligand) with hPPARg1 (hPPARg1 promoter): 0.81

B4: RVRa: Rev-Erb α (NR1D1), cDNA driver (protein, UniProt P20393 1-614, looked up)
Nuclear receptor subfamily 1 …: MTTLDSNNNTGGVITYIGSSGSSPSRTSPESLYSDNSNGSFQSLTQGCPTYFPPSPTGSLTQDPARSFGSIPPSLSDDGSPSSSSSSSSSSSSFYNGSPPGSLQVAMEDSSRVSPSKSTSNITKLNGMVLLCKVCGDVASGFHYGVHACEGCKGFFRRSIQQNIQYKRCLKNENCSIVRINRNRCQQCRFKKCLSVGMSRDAVRFGRIPKREKQRMLAEMQSAMNLANNQLSSQCPLETSPTQHPTPGPMGPSPPPAPVPSPLVGFSQFPQQLTPPRSPSPEPTVEDVISQVARAHREIFTYAHDKLGSSPGNFNANHASGSPPATTPHRWENQGCPPAPNDNNTLAAQRHNEALNGLRQAPSSYPPTWPPGPAHHSCHQSNSNGHRLCPTHVYAAPEGKAPANSPRQGNSKNVLLACPMNMYPHGRSGRTVQEIWEDFSMSFTPAVREVVEFAKHIPGFRDLSQHDQVTLLKAGTFEVLMVRFASLFNVKDQTVMFLSRTTYSLQELGAMGMGDLLSAMFDFSEKLNSLALTEEELGLFTAVVLVSADRSGMENSASVEQLQETLLRALRALVLKNRPLETSRFTKLLLKLPDLRTLNNMHSEKLLSFRVDAQ
Luc. act., normalized to lacZ (mGhrelin promoter): 79.3
Normalized Luc. act., normalized to control (mGhrelin promoter): 1.5
Results of assays of transcription factor (+/- ligand) with mGhrelin (mGhrelin promoter): 1.52
Luc. act., normalized to lacZ (mLeptin promoter): 2.5
Normalized Luc. act., normalized to control (mLeptin promoter): 0.9
Results of assays of transcription factor (+/- ligand) with mLeptin (mLeptin promoter): 0.86
Results of assays of transcription factor (+/- ligand) with mPOMC (mPOMC promoter): 1.13
Luc. act., normalized to lacZ (mPOMC promoter): 77.9
Normalized Luc. act., normalized to control (mPOMC promoter): 1.1
Normalized Luc. act., normalized to control (mUCP3 promoter): 1.2
Luc. act., normalized to lacZ (mUCP3 promoter): 0.8
mUCP3 promoter reporter activity (mUCP3 promoter): 1.24
Normalized Luc. act., normalized to control (hIRF7 promoter): 1.2
Luc. act., normalized to lacZ (hIRF7 promoter): 32.6
hIRF7 promoter reporter activity (hIRF7 promoter): 1.24
Luc. act., normalized to lacZ (hPPARg1 promoter): 45.9
Normalized Luc. act., normalized to control (hPPARg1 promoter): 0.7
Results of assays of transcription factor (+/- ligand) with hPPARg1 (hPPARg1 promoter): 0.67
